In the supplement of paper PMC10567573:

B1: ZNF449 (parent)
chain: FQEYDTDCEVFRQRFRQFQYREAA

Variants of: B1
Test: protein stability index of a GFP-peptide fusion (GPS, HEK-293T) (PSI 1-6); higher = more stable
Conditions: c terminus: a fixed tail appended
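Further: lentivirally expressed fusions sorted by FACS into six bins by GFP to DsRed ratio, PSI derived from sequencing read proportions per bin multiplied by bin number.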

Protein stability index: each site, then its substitutions
T6: G 1.92, H 2.1, I 2.74, K 2.05, L 1.89, M 2.13, N 2.67, P 2.77, Q 2.65, S 1.73, V 2.22, W 2.11, Y 2.81
D7: A 1.53, C 1.1, E 2.26, F 2.27, G 2.02, H 2.12, I 2.25, K 2.02, L 1.93, M 1.59, N 1.83, P 1.61, Q 2.68, R 2.3, S 2.1, T 2.08, V 1.34, Y 1.34
C8: A 2.76, D 3.11, E 3.42, F 2.24, G 2.08, H 3.01, I 2.49, K 2.63, L 2.04, M 2.71, N 2.58, P 2.7, Q 2.21, R 2.32, S 2.88, T 2.71, V 2.74, W 1.83, Y 2
E9: A 2, C 1.76, D 2.16, F 1.96, G 2.29, H 1.6, I 2.47, K 2.21, L 1.67, M 2.65, N 2.35, P 2.46, Q 1.88, S 1.54, T 1.89, V 1.79, W 2.02, Y 1.27
V10: A 2.2, C 2.52, D 3.02, E 3.08, F 2.86, G 2.9, H 3, I 2.5, K 2.35, L 2.3, M 2.63, N 2.67, P 2.92, Q 3.27, R 2.37, S 2.78, T 2.49, W 2.13, Y 2.62
F11: C 2.99, D 3.95, E 3.51, G 3.6, H 3.45, I 2.72, K 3.14, L 2.54, M 3.27, N 3.57, P 3.33, Q 3.24, R 4.69, S 2.94, T 3.15, V 3.68, W 2.37, Y 2.78
R12: A 3.29, C 1.71, D 3.31, E 2.48, F 2.54, G 2.57, H 2.3, I 2.14, K 2.38, L 1.97, M 2.24, N 2.27, P 2.35, Q 2.61, S 2.53, T 2.41, V 2.21, W 1.94, Y 2.06
Q13: A 2.72, C 2.34, D 2.6, E 2.51, F 1.87, G 1.81, H 2.53, I 1.94, K 2.22, L 1.67, M 1.67, N 2.58, P 1.03, R 2.04, S 2.4, T 2.41, V 2.53, W 2.42, Y 1.75
R14: A 2.83, C 2.23, D 2.17, E 2.69, F 2.01, G 2.67, H 2.76, I 1.9, K 3.16, L 2.37, M 3.51, N 2.62, P 1.8, Q 2.32, S 2.29, T 2.75, V 1.65, W 2.36, Y 2.35
F15: A 3.02, C 2.83, D 3.43, E 2.92, G 2.85, H 3.33, I 2.44, K 2.22, L 2.42, M 2.84, N 2.88, P 3, Q 3.01, R 2.76, S 2.57, T 2.66, V 2.98, W 2.62, Y 2.17
R16: A 2.51, C 2.07, D 2.6, E 2.27, F 2.44, G 2.44, H 1.98, I 2.31, K 2.98, L 2.59, M 3.38, N 2.46, P 2.11, Q 2.78, S 2.21, T 2.28, V 2.44, W 2.2, Y 2.4
Q17: A 2.67, C 2, D 3.13, E 2.85, F 1.71, G 2.22, H 2.44, I 2.6, K 2.42, L 2.75, M 2.7, N 2.44, P 1.97, R 2.31, S 2.39, T 2.51, V 2.3, W 2.17, Y 2.86
F18: A 3.02, C 1.96, D 1.79, E 2.95, G 2.4, H 2.4, I 2.86, K 1.76, L 4.05, M 3.07, N 2.38, P 2.43, Q 3.56, R 2.43, S 2.1, T 3.11, W 3.11, Y 2.59
Q19: A 2.81, C 2.02, D 2.18, E 2.35, F 1.87, G 2.67, H 2.6, I 2.53, K 2.44, M 2, N 2.29, P 2.16, R 2.65, S 2.11, T 2.3, V 2.48, W 2.35, Y 2.22
Y20: A 3.12, C 2.2, D 3.49, E 3.52, F 2.57, G 3.31, H 3.27, I 3.37, K 3.21, L 2.83, M 3.03, N 3.48, P 2.81, Q 3.73, R 2.88, S 3.15, T 3.46, V 3.27, W 1.47
R21: A 2.44, C 2.92, D 3.13, E 3.16, F 2.91, G 3.14, H 2.53, I 2.71, K 2.65, L 1.91, M 2.69, N 2.62, P 2.44, Q 2.96, S 2.77, T 2.86, V 2.51, W 1.75, Y 2.54
E22: A 2.43, C 2.39, D 2.91, F 2.69, G 2.35, H 2.36, I 1.99, K 2.75, L 2.22, M 1.83, N 2.39, P 1.72, Q 2.17, R 1.65, S 2.07, T 2.62, V 2.12, Y 1.95
A23: C 2.65, D 2.73, E 3.28, F 2.15, H 2.54, I 1.7, K 3.31, L 2.51, M 2.43, N 2.7, P 2.39, Q 2.89, R 2.97, S 2.11, T 2.47, V 2.15, W 1.61, Y 1.95
A24: C 2.96, D 2.8, E 2.95, F 2.13, G 2.51
